# Assay results reported in patent publication US6458552B1, “Metalloprotease peptide substrates and methods” (Ortho-McNeil Pharmaceutical, Inc., priority 2000, dated 2002).
# T1: TNFα FRET peptide X-PLAQAVRSSS-Z (not fully specified)
# T1 chain: PLAQAVRSSS
# T2: TNFα(-4 + 6) FRET peptide Z-LAQAVRSSSR-X (not fully specified)
# T2 chain: LAQAVRSSSR
# T3: KAS-1 FRET peptide Z-RGVVNASSRLAK-X (not fully specified)
# T3 chain: RGVVNASSRLAK
# T4: AD8P2 FRET peptide X-RVRRALPS-Z (not fully specified)
# T4 chain: RVRRALPS
# T5: TNFB2 FRET peptide X-PSAAQTARQHP-Z (not fully specified)
# T5 chain: PSAAQTARQHP
# T6: CD27L FRET peptide X-RFAQAQQQLP-Z (not fully specified)
# T6 chain: RFAQAQQQLP
# T7: CatE1 FRET peptide X-KPAKFFRL-Z (not fully specified)
# T7 chain: KPAKFFRL
# T8: Mat FRET peptide Z-RPLGLAR-X (not fully specified)
# T8 chain: RPLGLAR
# T9: KL1 FRET peptide X-PPVAASSLRN-Z (not fully specified)
# T9 chain: PPVAASSLRN
# T10: AD8P FRET peptide X-RTAAVFRP-Z (not fully specified)
# T10 chain: RTAAVFRP
# T11: CatE FRET peptide X-KPAAFFRL-Z (not fully specified)
# T11 chain: KPAAFFRL
# What was measured:
# [1] = system: ADAM8; assay: ADAM8 protein expression in THP-1 cells (immunoblot); assay type: cell-based, human; settings: LPS 100 ng/ml 16 hours, IFN-γ 200U/ml 24 hours
# Method: Polyclonal antisera against ADAM8 and ADAM15 were generated by immunizing rabbits with KLH-conjugated peptides corresponding to the C-terminal sequences of ADAM8 and 15, respectively. The antisera were used to detect ADAM8 and ADAM15 in THP-1 cell lysates. THP-1 cells were treated with interferon(IFN)-γ (200U/ml) or bacterial lipopolysaccharide (LPS) (100 ng/ml), for 24 hours or 16 hours, respectively. The cells were then harvested, washed with PBS and lysed in PBS containing 1% NP-40 and Complete® protease inhibitors. The cell extracts were analyzed for expression of ADAM8 and ADAM15 by SDS-PAGE, transfer to nitrocellulose, and immunoblotting with the antisera to ADAM8 and ADAM15, respectively. […] The corresponding pre-immune sera gave no positive bands at these molecular weights for THP-1 cell extracts in similar assays.
# [2] = target: T1, TNFα FRET peptide X-PLAQAVRSSS-Z
# [3] = target: T2, TNFα(-4 + 6) FRET peptide Z-LAQAVRSSSR-X
# [4] = target: T3, KAS-1 FRET peptide Z-RGVVNASSRLAK-X
# [5] = target: T4, AD8P2 FRET peptide X-RVRRALPS-Z
# [6] = target: T5, TNFB2 FRET peptide X-PSAAQTARQHP-Z
# [7] = target: T6, CD27L FRET peptide X-RFAQAQQQLP-Z
# [8] = target: T7, CatE1 FRET peptide X-KPAKFFRL-Z
# [9] = target: T8, Mat FRET peptide Z-RPLGLAR-X
# [10] = target: T9, KL1 FRET peptide X-PPVAASSLRN-Z
# [11] = target: T10, AD8P FRET peptide X-RTAAVFRP-Z
# [12] = target: T11, CatE FRET peptide X-KPAAFFRL-Z
# [13] = system: membrane-bound CD23; assay: Cleavage of CD23 from the surface of U937 cells by ADAM enzymes (flow cytometry); assay type: cell-based, human; settings: U-937 cells, one hour at 37° C.
# Method: U-937 (ATCC CRL-1593.2), a monoblastoid cell line, were harvested, washed and resuspended in HEPES-buffered saline, pH 7.5. Then the cells were treated for one hour at 37° C. in the absence or presence of ADAM8, ADAM17, ADAM15 or MDC-L. As a further control, some cells were incubated in the presence of ADAM8, ADAM17, ADAM15 or MDC-L with the addition of Inhibitor C. Intact, membrane-bound CD23 was then detected by staining the cells with a FITC-conjugated anti-human CD23 antibody (Pharmingen) and detection by flow cytometry.
Molecule,Up-regulation of ADAM8 at the protein level [1],Relative proteolytic activity [2],Relative proteolytic activity [3],Relative proteolytic activity [4],Relative proteolytic activity [5],Relative proteolytic activity [6],Relative proteolytic activity [7],Relative proteolytic activity [8],Relative proteolytic activity [9],Relative proteolytic activity [10],Relative proteolytic activity [11],Relative proteolytic activity [12],Cleavage of membrane-bound CD23 from the cell surface [13]
IFN-γ: interferon-γ,approximately ten-fold,–,–,–,–,–,–,–,–,–,–,–,–
recombinant ADAM17 (protein) RADPDPMKNTCKLLVVADHRFYRYMGRGEESTTTNYLIELIDRVDDIYRNTSWDNAGFKGYGIQIEQIRILKSPQEVKPGEKHYNMAKSYPNEEKDAWDVKMLLEQFSFDIAEEASKVCLAHLFTYQDFDMGTLGLAYVGSPRANSHGGVCPKAYYSPVGKKNIYLNSGLTSTKNYGKTILTKEADLVTTHELGHNFGAEHDPDGLAECAPNEDQGGKYVMYPIAVSGDHENNKMFSNCSKQSIYKTIESKAQECFQERSNKV,–,***,***,(-),(-),(-),(-),(-),***,(-),*****,(-),does not cleave CD 23
